“Also recorded” adds a separate entry of the source. Where a SMILES comes first, the peptide text is derived from it. The star is where a group is joined. Cbz = O=C(OCc1ccccc1)*; CH2F = FC*
T1: active recombinant human caspase 3 (Homo sapiens, UniProt P42574)
T1 construct: incubated with active recombinant human caspase 3; purchased BD PharMingen
T1 sequence (P42574 29-175 limits assumed): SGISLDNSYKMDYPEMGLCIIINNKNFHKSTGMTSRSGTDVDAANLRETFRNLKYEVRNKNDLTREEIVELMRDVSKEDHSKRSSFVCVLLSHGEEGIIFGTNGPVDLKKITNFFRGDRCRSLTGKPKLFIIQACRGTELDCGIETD
T1 sequence (P42574 176-277 limits assumed): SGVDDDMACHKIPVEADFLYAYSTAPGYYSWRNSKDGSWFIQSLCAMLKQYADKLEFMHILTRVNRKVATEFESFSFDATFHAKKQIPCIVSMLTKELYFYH


Columns and labels:
[1] = target: T1, active recombinant human caspase 3; assay: In vitro cleavage of recombinant SRF by active caspase 3, Western blot; type: biochemical; details: 20 μM Z-VAD-fmk, recombinant full length SRF
Experimental: Recombinant purified full length SRF was incubated with active recombinant human caspase 3 (BD PharMingen) in the presence or absence of 20 μM of Z-VAD-fmk (BD PharMingen), a caspase 3 inhibitor, in a reaction buffer (50 mM HEPES (pH 7.4), 100 mM NaCl, 1 mM EDTA, 0.1% CHAPS, 10 mM DTT and 10% glycerol). Reactions were analyzed by Western blot as described above.
To examine caspase 3 cleavage of SRF, we incubated activated caspase 3 with recombinant SRF in vitro. […] Caspase 3 cleaved SRF in a time-dependent manner, and this cleavage was inhibited by the caspase inhibitor, Z-VAD. […] In this case, the 55 kDa fragment tended to fall as a function of caspase 3 doses while there was a coincident increase into a 32 kDa fragment.

cardiac α-actin promoter = assay: Cardiac α-actin promoter luciferase reporter (αCA-luc) co-transfection; type: cell-based, rat; details: for effect on cardiac α-actin promoter activity (in words): neonatal rat cardiomyocytes
Text: (§1) The construction and use of reporter plasmids containing the skeletal (SK-luc) and cardiac α-actin (aCA-luc) promoters linked to luciferase reporters were as previously described (MacLellan et al., 1994; Wei et al., 1998). The vector pCGN, a cytomegalovirus promoter-driven expression vector, was used to express full length SRF (residues 1-508) (pCGN-SRF), N-terminal SRF (residues 1-254) (pCGN-SRF-N), C-terminal SRF (residues 255-508) (pCGN-SRF-C) and SRFpm1 (pCGN-SRFpm1) containing triple point mutants within the MADS box (Prywes and Zhu, 1992).
(§2) C2C12 myoblasts and neonatal rat cardiomyocytes were cultured as previously described (MacLellan et al., 1994; Wei et al., 1998). Cells plated in 30-mm plates were transfected with […] of total plasmid DNA containing the reporter plasmid (SK-luc or aCA-luc) and the indicated expression plasmids. Transfections were performed using LipofectAMINE (Invitrogen) according to the manufacturer's instructions. Cells were harvested 40 h post-transfection and luciferase activity was measured as previously described (MacLellan et al., 1994).
(§3) To evaluate potential functional significance of the cleaved fragments, we overexpressed the SRF-N and SRF-C fragments via CMV promoter-driven expression plasmids co-transfected with cardiac α-actin and skeletal α-actin promoter reporter plasmids in cultured rat neonatal cardiomyocytes and C2C12 myoblasts. […] This inhibitory effect was very similar to that observed by a SRF negative mutant SRFpml (Wei et al., 1998; Prywes and Zhu, 1992; Johansen and Prywes, 1993).

[2] = test system: skeletal α-actin promoter; assay: Skeletal α-actin promoter luciferase reporter (SK-luc) co-transfection in C2C12 myoblasts; type: cell-based
Text: as §1, §2, §3

[3] = test system: skeletal α-actin SRE1 DNA probe; assay: Electrophoretic gel mobility shift assay (EMSA); type: binding; details: recombinant protein
Experimental: DNA binding activity of SRF-N was assayed by EMSA with recombinant SRF-N and full length SRF and with the oligonucleotide probe corresponding to the proximal SRE1 of the skeletal a-actin promoter as previously described (MacLellan et al., 1994; Wei et al., 1998). Recombinant SRF and SRF-N were generated using pET-15b (Novagen) vector, which contains 6′histidine tag. These recombinant SRFs were expressed in BL21 (Stratagene) competent cells followed by Ni-NTA (nickel-nitrilotriacetic acid) resin purification.

neonatal cardiomyocytes = assay: Immunofluorescence analysis of cellular localization in transfected cardiomyocytes; type: cell-based, rat; details: transfected cardiac myocytes, anti-HA antibody
Text: Visualization of transfected SRF and SRF-N cellular localization was implemented in neonatal cardiomyocytes attached to coverslips as described previously (Wei et al., 2001). Anti-HA antibody was used at 1:200.

| cleavage of SRF by caspase 3 [1] | decrease of basal transcriptional activity of the cardiac α-actin promoter (cardiac α-actin promoter; cultured rat neonatal cardiomyocytes, CMV promoter-driven expression plasmid, 40 h post-transfection) [%] | effect on cardiac α-actin promoter activity (in words) (cardiac α-actin promoter) | inhibition of the transcriptional activity of α-actin gene promoters (cardiac α-actin promoter; summary for myogenic cells (cardiomyocytes and C2C12 myoblasts together)) | effect on skeletal α-actin promoter activity (in words) [2] | decrease of basal transcriptional activity of the skeletal α-actin promoter ([2]; CMV promoter-driven expression plasmid, 40 h post-transfection) [%] | Molecule | binding to skeletal α-actin SRE1 DNA probe [3] | nuclear localization (neonatal cardiomyocytes) |
| --- | --- | --- | --- | --- | --- | --- | --- | --- |
| blocked; also recorded: inhibited | – | – | – | – | – | COC(=O)C[C@H](NC(=O)[C@H](C)NC(=O)[C@@H](NC(=O)OCc1ccccc1)C(C)C)C(=O)CF [Z-VAD, Z-VAD-fmk] (Cbz-Val-Ala-Asp(OMe)-CH2F) | – | – |
| – | 60 | repressed | 50-60% | repressed | 50 | SRF-N: N-terminal SRF (residues 1-254), 32 kDa caspase 3 cleavage fragment (protein) MLPTQAGAAAALGRGSALGGSLNRTPTGRPGGGGGTRGANGGRVPGNGAGLGPGRLEREAAAAAATTPAPTAGALYSGSEGDSESGEEEELGAERRGLKRSLSEMEIGMVVGGPEASAAATGGYGPVSGAVSGAKPGKKTRGRVKIKMEFIDNKLRRYTTFSKRKTGIMKKAYELSTLTGTQVLLLVASETGHVYTFATRKLQPMITSETGKALIQTCLNSPDSPPRSDPTTDQRMSATGFEETDLTYQVSESD | retains DNA binding activity; also recorded: bound | localize to myogenic nuclei |
| – | – | did not inhibit | – | did not inhibit | – | SRF-C: C-terminal SRF (residues 255-508), 32 kDa fragment (protein) SSGETKDTLKPAFTVTNLPGTTSTIQTAPSTSTTMQVSSGPSFPITNYLAPVSASVSPSAVSSANGTVLKSTGSGPVSSGGLMQLPTSFTLMPGGAVAQQVPVQAIQVHQAPQQASPSRDSSTDLTQTSSSGTVTLPATIMTSSVPTTVGGHMMYPSPHAVMYAPTSGLGDGSLTVLNAFSQAPSTMQVSHSQVQEPGGVPQVFLTASSGTVQIPVSAVQLHQMAVIGQQAGSSSNLTELQVVNLDTAHSTKSE | – | – |

From patent US7582478B2, “Cleaved serum response factor in cardiac diagnosis and therapy” (Baylor College of Medicine, priority 2003, dated 2009)
